{"source": "paper PMC5371579", "about": "“Expression of a new laccase from Moniliophthora roreri at high levels in Pichia pastoris and its potential application in micropollutant degradation” (AMB Express, 2017)", "assay_in_all_cases": "purified protein", "assay_type_in_all_cases": "biochemical, Moniliophthora roreri", "key": {"purified protein [1]": {"substrate": "COc1cccc(OC)c1O", "details": "100 mM citrate phosphate buffer, pH 4 (optimum)"}, "purified protein [2]": {"substrate": "CCn1c(=NN=c2sc3cc(S(=O)(=O)O)ccc3n2CC)sc2cc(S(=O)(=O)O)ccc21", "details": "100 mM citrate phosphate buffer at optimal pH (pH 2 stated for ABTS)"}, "purified protein [3]": {"substrate": "COc1cc(C=NN=Cc2cc(OC)c(O)c(OC)c2)cc(OC)c1O", "details": "100 mM citrate phosphate buffer, pH 4 (optimum)"}, "purified protein [4]": {"substrate": "COc1ccccc1O", "details": "100 mM citrate phosphate buffer, pH 5 (optimum)"}}}
{"protein": "Mrl2 (Moniliophthora roreri MCA 2997) (protein, native signal peptide replaced by S. cerevisiae alpha-factor leader (Kex2 cleavage; mature N-terminus SIGPI from primer); no tag (stop codon in reverse primer); codon-optimized gene; secreted from Pichia pastoris X-33, DEAE-purified, glycosylated (~90 kDa; calculated 54 kDa); EC 1.10.3.2) SIGPIADLVISNQDVSPDGFTRSAVVAGGDTIGPLIVGNKNDNLQINVVNNLDDDTMLQSTSIHWHGFFQQSTNWADGTAFVNQCPIAKGNSFLYDFDATDQAGTFWYHSHLSTQYCDGLRGPIVIYDPDDPHASLYDVDDESTVITLADWYHTKAKEITFGTPDSTLINGLGRWSQGNETDLSVITVTSGQRYRMRLINTACDAAYTFSIDNHTMTVIEADAVNIEPIEVDSLTIYAGQRYSFVLNADQAVGNYWIRANPNIGTMGYTNGINSAILRYDTAEEEEPDVLDITSTNSLSEADLVPLENPGAPGDPVVGGVDYALHLDFAFTSAATFTVNDATFVPPTVPVLLQILSGAQTADTLLPSGSVVALPSNSTIELSMTGGLLGLEHPIHLHGHNFDVVRVAGSTEYNYENPIRRDVVNAGSTSDNVTIRFTTDNPGPWILHCHIDWHLEAGFAIVFAEATDEWVDTIDPSDAWENLCPTYDALSDDDL", "values": [{"measurement": "Km", "setting": "purified protein [1]", "value": "358 ± 58.5", "unit": "µM"}, {"measurement": "kcat", "setting": "purified protein [1]", "value": 74, "unit": "s⁻¹"}, {"measurement": "kcat/Km", "setting": "purified protein [1]", "value": 207000, "unit": "M⁻¹ s⁻¹"}, {"measurement": "Km", "setting": "purified protein [2]", "value": "24.13 ± 1.9", "unit": "µM"}, {"measurement": "kcat", "setting": "purified protein [2]", "value": 316, "unit": "s⁻¹"}, {"measurement": "kcat/Km", "setting": "purified protein [2]", "value": "1.31e+07", "unit": "M⁻¹ s⁻¹"}, {"measurement": "Km", "setting": "purified protein [3]", "value": "12.45 ± 1.6", "unit": "µM"}, {"measurement": "kcat", "setting": "purified protein [3]", "value": 21, "unit": "s⁻¹"}, {"measurement": "kcat/Km", "setting": "purified protein [3]", "value": "1.68e+06", "unit": "M⁻¹ s⁻¹"}, {"measurement": "Km", "setting": "purified protein [4]", "value": "2235 ± 117.5", "unit": "µM"}, {"measurement": "kcat", "setting": "purified protein [4]", "value": 37, "unit": "s⁻¹"}, {"measurement": "kcat/Km", "setting": "purified protein [4]", "value": 16000, "unit": "M⁻¹ s⁻¹"}]}
